Substrate: O=[N+]([O-])c1ccc(O[C@@H]2OC[C@@H](O)[C@H](O)[C@H]2O)cc1
Experiment: purified protein
Format: biochemical, Sporisorium reilianum
Details: 50 mM-type acetate buffer assay, pH 4, substrate 1-7 mM, temperature not stated for the kinetics

B1: β-xylosidase SRBX1 (Sporisorium reilianum SRZ2) (protein)
chain: ASLEHLNMLFHTRQADASNSTDSSSVNWNISSSDNSALATAPLAGTFYRGGPALADANSPFHPVTGNGGWEWAVVKARSVVGQLTLEEKVNLTAGITGGRCEGTLGRVDRFGIPELCFQDGPAGFRASDFVTVFPAGVTTAATWNRDLIYKRAAALGAEFVAKGVNVHLGPVTGGPLGRSPFQGRNWEGFGPDPYLHGEAAYYTVSGTQSAGVISTAKHFLAYEQETYRQLYAASDPFTLNPNNNTELTYSANLDDRTLHELYLWPFMNAVRAGTGALVCVYNRVNSTQGCESSKLLNEILKDELDYQGFVVTDWSAAFNTSNTYNGGSDVVMPGGMTGGYKNLVGGSDLVRALNAGEVKIERINDGITRLLTQWYLRGQDKGYPTVSYKDGYQNTIFNGTVVNEHRDVQGDHRKIVKEIGEEAVTLIYNKRSNKAGPQGNTDFGLGLPLAKKARVAVFGSDAGPNPYGANACQDWIGLGSQLCPANATSNGTQAVGWGSGAGFFPYLIDPLAGISEVAKENRGAVLHNLNDVGDDKNQMYVKQQAGLADASLVFVQARSGEDSDRHSLRLDADGDELIKLVASQSNNTIVVMHTVGPVLMGDWFDHPNITALVLPHLPGQESGSSLARVLYGDVNPSGKMPYSMLSDEDAKRYPKIVGSPASDPQVDFYDGLYIDYRAWDKMGLKPLIPFGHGISYTNYSYSNLHIQKAGDNCYAPSAFSGSFKSDKQPGGPGSLFQYLVEVSADVQNVGAMAGDEVAQLYVGYPEAANAPIKQLRGFDKVQGLEPGAASKQATFKLAKRDFSVWDVVKQKFEVVDGEYKIWVGKSSRMSDLTLKGSVTMQNGMVVGMSS
notes: native extracellular enzyme purified from S. reilianum culture supernatant by gel filtration; theoretical precursor 874 aa, signal peptide 1-23; monomer; 12 theoretical glycosylation sites; no tag
Q: B1 was tested. Which Km did it give?
A: Its Km is 2500 µM.
